The text below walks through data of patent US20240368233A1 (University of Washington, published 2024).

The target of data set [1] is T1, 101B4, split luciferase reporter construct.
T1 construct: not shown: N-terminal Strep-tag and sfGFP; GS-linker and smBiT or lgBiT
T1 chain: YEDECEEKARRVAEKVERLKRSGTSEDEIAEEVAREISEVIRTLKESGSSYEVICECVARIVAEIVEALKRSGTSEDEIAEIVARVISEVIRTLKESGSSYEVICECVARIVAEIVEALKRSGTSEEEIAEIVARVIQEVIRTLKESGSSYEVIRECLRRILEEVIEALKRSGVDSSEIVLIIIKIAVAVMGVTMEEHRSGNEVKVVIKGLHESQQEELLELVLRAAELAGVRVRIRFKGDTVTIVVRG
In words: split luciferase equilibrium binding in lysate.

In data set [2] the target is T1, 101B4, split luciferase reporter …. Briefly: split luciferase association kinetics, 1 nM vs. 10 nM, in lysate. The protocol: (§1) Assays were performed in 20 mM sodium phosphate, 100 mM NaCl, pH 7.4, 0.05% v/v Tween 20. Reactions were assembled in 96 well plates (Corning, cat #3686) in the presence of Nano-Glo™ substrate (Promega, cat. #N1130) diluted 100× or 500× for kinetics and endpoint measurements respectively (see supplement for detailed information). Luminescence was recorded on a Synergy Neo2 plate reader (BioTek). Kinetic assays were performed under pseudo first-order conditions, with the final concentration of one protein at 1 nM and the other at 10 nM. Dead times between substrate addition and data acquisition were typically 15-30 s. For long kinetic measurements (FIG. 11A), mastermixes of the protein complexes were made and aliquots were sampled at regular intervals. Data were fitted to a single exponential decay function: […]

The target of data set [3] is T2, LHD202 chainB.
T2 construct: also called LHD202B
T2 chain: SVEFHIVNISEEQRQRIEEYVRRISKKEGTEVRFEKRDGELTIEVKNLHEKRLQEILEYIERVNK
Briefly: BLI, global kinetic fit, 1:1 model. On the technique in general: In BLI a coated tip is dipped into the sample, and binding shifts an interference pattern.

For data set [4], the target named is T2, LHD202 chainB. In words: BLI, steady state fit.
In data set [5] the target is T3, LHD202 chainB, split luciferase reporter construct.
T3 construct: not shown: N-terminal Strep-tag and sfGFP; GS-linker and smBiT or lgBiT
T3 chain: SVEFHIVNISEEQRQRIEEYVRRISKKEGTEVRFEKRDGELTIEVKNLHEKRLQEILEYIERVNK
In words: split luciferase association kinetics, 1 nM vs. 10 nM, in lysate. As to the method:
as §1

Data set [6] concerns the target T4, 101B82, split luciferase reporter construct.
T4 construct: not shown: N-terminal Strep-tag and sfGFP; GS-linker and smBiT or lgBiT
T4 chain: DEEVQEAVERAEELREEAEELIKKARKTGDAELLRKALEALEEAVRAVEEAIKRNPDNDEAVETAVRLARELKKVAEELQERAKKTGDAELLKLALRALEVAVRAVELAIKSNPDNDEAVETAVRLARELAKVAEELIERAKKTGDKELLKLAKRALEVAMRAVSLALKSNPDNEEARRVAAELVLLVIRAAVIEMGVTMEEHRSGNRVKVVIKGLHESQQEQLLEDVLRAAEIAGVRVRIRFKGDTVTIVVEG
In words: split luciferase equilibrium binding in lysate.

Data set [7] deals with T5, LHD206 chainB, split luciferase reporter construct.
T5 construct: not shown: N-terminal Strep-tag and sfGFP; GS-linker and smBiT or lgBiT
T5 chain: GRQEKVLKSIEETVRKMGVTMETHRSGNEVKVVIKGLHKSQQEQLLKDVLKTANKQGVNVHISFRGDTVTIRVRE
Briefly: split luciferase equilibrium binding in lysate.

Data set [8] concerns the target T5, LHD206 chainB, split luciferase …. In words: split luciferase association kinetics, 1 nM vs. 10 nM, in lysate. The protocol: as §1
Data set [9] has as its target T6, LHD274 chainB, split luciferase reporter construct.
T6 construct: not shown: N-terminal Strep-tag and sfGFP; GS-linker and smBiT or lgBiT
T6 chain: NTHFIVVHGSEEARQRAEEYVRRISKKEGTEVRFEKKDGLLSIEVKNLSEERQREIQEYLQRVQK
Described as above. As to the method: as §1

Data set [10] concerns the target T7, LHD101 chainB, split luciferase reporter construct.
T7 construct: not shown: N-terminal Strep-tag and sfGFP; GS-linker and smBiT or lgBiT
T7 chain: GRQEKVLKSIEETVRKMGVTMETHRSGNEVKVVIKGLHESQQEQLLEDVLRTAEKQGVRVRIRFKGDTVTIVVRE
In words: split luciferase equilibrium binding in lysate.

Data set [11] concerns the target T7, LHD101 chainB, split luciferase …. Briefly: split luciferase association kinetics, 1 nM vs. 10 nM, in lysate. The protocol:
as §1

Data set [12] shares this target. In words: split luciferase equilibrium titration in E. coli lysate, constant partner at 1 nM; first-named construct read as the titrated one; no unit beside the number, M from the axis '[Titrated] / M'.
For data set [13] the target is unchanged. In words: split luciferase; affinity of the interface as measured in isolation, used to simulate the ternary complex ABC.
Data set [14] concerns the target T8, LHD101 chainB.
T8 construct: also called LHD101B
T8 chain: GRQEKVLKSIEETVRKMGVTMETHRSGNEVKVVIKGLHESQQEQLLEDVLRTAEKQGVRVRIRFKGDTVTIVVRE
In words: BLI, global kinetic fit, 1:1 model.

Data set [15] deals with the molecule itself. In words: SEC titration (self-association).
In data set [16] the target is T8, LHD101 chainB. In words: BLI, dissociation rate constant (kdis). The protocol:
Biolayer interferometry experiments were performed on an OctetRED96 BLI system (ForteBio, Menlo Park, CA). Streptavidin coated biosensors were first equilibrated for at least 10 minutes in Octet buffer (10 mM HEPES pH 7.4, 150 mM NaCl, 3 mM EDTA, 0.05% Surfactant P20) supplemented with 1 mg/ml Bovine Serum Albumin (SigmaAldrich). Enzymatically biotinylated designs were immobilized onto the biosensors by dipping the biosensors into a solution with 10-50 nM protein for 30-120 s. This was followed by dipping in fresh octet buffer to establish a baseline for 120 s. Titration experiments were performed at 25° C. while rotating at 1,000 r.p.m. Association of designs was allowed by dipping biosensors in solutions containing designed protein diluted in octet buffer until equilibrium was approached followed by dissociation by dipping the biosensors into fresh buffer solution in order to monitor the dissociation kinetics. Steady-state and global kinetic fits were performed using the manufacturer's software (Data Analysis 9.1) assuming a 1:1 binding model.

The target of data set [17] is T8, LHD101 chainB. In words: BLI, steady state fit.
In data set [18] the target is T8, LHD101 chainB. Briefly: BLI. An excerpt:
FIG. 8A-E. Characterization LHD binding in vitro. A: Designed models heterodimers (top row). Middle row, SEC binding experiments performed on a Superdex™ 75 column. Bottom row, biolayer interferometry kinetic binding traces. […] C: Kinetic binding traces from BLI. Equilibrium responses were used to fit equilibrium binding curves D: Equilibrium binding curves of LHDs from biolayer interferometry binding assays with data from C. […] Biotinylated unfused protomers were immobilized on streptavidin coated biosensors.
Biolayer interferometry experiments were performed on an OctetRED96 BLI system (ForteBio, Menlo Park, CA). Streptavidin coated biosensors were first equilibrated for at least 10 minutes in Octet buffer (10 mM HEPES pH 7.4, 150 mM NaCl, 3 mM EDTA, 0.05% Surfactant P20) supplemented with 1 mg/ml Bovine Serum Albumin (SigmaAldrich). Enzymatically biotinylated designs were immobilized onto the biosensors by dipping the biosensors into a solution with 10-50 nM protein for 30-120 s. This was followed by dipping in fresh octet buffer to establish a baseline for 120 s. Titration experiments were performed at 25° C. while rotating at 1,000 r.p.m. […]

The target of data set [19] is T9, LHD29 chainB, split luciferase reporter construct.
T9 construct: not shown: N-terminal Strep-tag and sfGFP; GS-linker and smBiT or lgBiT
T9 chain: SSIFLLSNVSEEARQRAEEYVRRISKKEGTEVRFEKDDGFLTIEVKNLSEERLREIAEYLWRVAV
In words: split luciferase equilibrium binding in lysate.

Data set [20] addresses T9, LHD29 chainB, split luciferase reporter …. Briefly: split luciferase association kinetics, 1 nM vs. 10 nM, in lysate. The protocol: as §1
For data set [21] the target is unchanged. In words: split luciferase; affinity of the interface as measured in isolation, used to simulate the ternary complex ABC.
Data set [22] concerns the molecule itself. Briefly: SEC titration of the protomer alone at several injection concentrations (Superdex 75, normalised A230); self-association.
Data set [23] deals with T10, 317B.
T10 construct: also called LHD317 B; LHD317B
T10 chain: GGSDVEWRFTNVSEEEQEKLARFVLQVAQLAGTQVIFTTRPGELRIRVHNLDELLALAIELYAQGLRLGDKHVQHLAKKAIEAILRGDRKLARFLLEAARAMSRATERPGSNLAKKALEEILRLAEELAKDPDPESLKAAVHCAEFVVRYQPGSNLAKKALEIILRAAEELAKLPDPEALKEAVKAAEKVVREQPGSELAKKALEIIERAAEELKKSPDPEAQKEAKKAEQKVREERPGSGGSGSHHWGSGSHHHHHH
In words: BLI, global kinetic fit, 1:1 model.

Data set [24] deals with T10, 317B. In words: BLI, steady state fit.

B1: 101A53, split luciferase reporter construct (designed binder)
chain: NDEKEKLKELLKRAEELAKSPDPEDLKEAVRLAEEVVRERPGSNLAKKALEIILRAAEELAKLPDPEALKEAVKAAEKVVREQPGSNLAKKALEIILRAAAALANLPDPESRKEADKAADKVRREQPGSELAVVAAIISAVARMGVKMELHPSGNEVKVVIKGLHIKQQRQLYRDVREAAKKAGVEVEIEVEGDTVTIVVRG
notes: also called LHD101-A53-B4 (A53 half); not shown: N-terminal Strep-tag and sfGFP; GS-linker and smBiT or lgBiT
What is called Kd is a measure of binding affinity in units of concentration. Higher therefore signals lower affinity. Regarding B1, the Kd in [1] amounted to 4 nM. In addition, the kobs in data set [2] was determined as 0.026 s⁻¹.

B2: LHD202 chainA (designed binder)
chain: GRQEKVLKSIEETVRKMGVTMETHRSGNKVKVVIKGLHESQQEQLRKDVHETLRKQGVVAVTQKHGDTVTIYVTE
notes: also called LHD202A
The koff is a measure of how fast the partners let go of each other. A high value points to fast dissociation. By kon is commonly meant a measure of how fast the partners come together. Lower therefore signals slower complex formation. For B2, in the data set with LHD202 chainB [3], the Kd came to 4800 nM, the dissociation rate constant (koff) was 0.29 s⁻¹ and the kon is 60000 M⁻¹ s⁻¹. In the data set with LHD202 chainB [4], this molecule showed a dissociation constant Kd of 2400 nM.

B3: LHD202 chainA, split luciferase reporter construct (designed binder)
chain: GRQEKVLKSIEETVRKMGVTMETHRSGNKVKVVIKGLHESQQEQLRKDVHETLRKQGVVAVTQKHGDTVTIYVTE
notes: not shown: N-terminal Strep-tag and sfGFP; GS-linker and smBiT or lgBiT
With B3, in data set [5], the kobs was determined as 0.018 s⁻¹.

B4: 101A21, split luciferase reporter construct (designed binder)
chain: SEKEKVEELAQRIREQLPDTELAREAQELADEARKSDDSEALKVVYLALRIVQQLPDTELAREALELAKEAVKSTDSEKLKVVYLALRVVQQLPDTEEARKALEIAKEAVKADAQILLAIARAVLKMGVEMEVHPSGNEVKVVIKGLHIKQQRQLYRDVREAAKKAGVEVEIEVEGDTVTIVVRE
notes: also called LHD101-A21-B82 (A21 half); not shown: N-terminal Strep-tag and sfGFP; GS-linker and smBiT or lgBiT
As for B4, the Kd in data set [6] came out at 11 nM.

B5: LHD206 chainA, split luciferase reporter construct (designed binder)
chain: TDELLERLRQLFEELHERGTEIVVEVHINGRKTEIEVQGIDKRLLKIILEVIREEIEREGSSEVEVNVHSGGQTWTFNEK
notes: as for B3
B5 came in with a dissociation constant Kd in data set [7] of 11 nM. Besides, in data set [8], the kobs was determined as 0.01 s⁻¹.

B6: LHD274 chainA, split luciferase reporter construct (designed binder)
chain: TTNFHLINGSEEARQRIEEYVRRISKKEGTEVHFEKSDGTLEIRVKNLHEKREREIKEYIERVLL
notes: as for B3
As for B6, in data set [9], the kobs was found to be 0.0014 s⁻¹.

B7: LHD101 chainA, split luciferase reporter construct (designed binder)
chain: GRQEKVLKSIEETVRKMGVTMETHRSGNEVKVVIKGLHIKQQRQLYRDVRETSKKQGVETEIEVEGDTVTIVVRE
notes: as for B3
On to B7, for which the Kd is 20 nM in data set [10], 37 nM in data set [12] and 5 nM in data set [13]. Also, in data set [11], the kobs came to 0.04 s⁻¹.

B8: LHD101 chainA (designed binder)
chain: GRQEKVLKSIEETVRKMGVTMETHRSGNEVKVVIKGLHIKQQRQLYRDVRETSKKQGVETEIEVEGDTVTIVVRE
notes: also called LHD101A
As to B8, the Kd with LHD101 chainB [14] stood at 1.9 nM; in the data set with LHD101 chainB [17] it was 9.5 nM. Moreover, the koff was determined as 0.0043 s⁻¹ with LHD101 chainB [14] and 0.0214 s⁻¹ in the data set with LHD101 chainB [16]. Besides, the kon with LHD101 chainB [14] turned out to be 2.2e+06 M⁻¹ s⁻¹; in the data set with LHD101 chainB [18] it was 1e+06 M⁻¹ s⁻¹. In addition, the binding result in data set [15] is “no binding (tested: above 100 µM)”.

B9: LHD29 chainA, split luciferase reporter construct (designed binder)
chain: TWQWVLINISEEARQRIEEYVRRISKKEGTEVHFEKDDGVLHIRVKNLHEKRAREIHEYAKRVIL
notes: as for B3
For the molecule B9, the dissociation constant Kd was 60 nM in [19] and 50 nM in data set [21]. In data set [20], the kobs is 0.0003 s⁻¹.

B10: LHD317 chainA (designed binder)
chain: GRQEKVLKSIEETVRKMGVRMLTHRGGNAVIVVIEGLHPSQAEQLLRDVHRTAKKQGVTVHLVFTGDIVVIMVVVGASEEEQEEMHRLVREIAEALHEAKRKGANEEQLEQLLRELLERAEREG
notes: also called LHD317A
As to B10, the binding result in [22] is listed as “no binding (tested: 57.4 uM)”. In the data set with 317B [23], the Kd amounted to 34.7 nM, the koff worked out at 0.0051 s⁻¹ and the on-rate (kon) is 150000 M⁻¹ s⁻¹. Moreover, the Kd in the data set with 317B [24] was 56 nM.
